Laboratory results reported in US20100255020A1, “METHOD FOR INDUCING CYTOTOXIC T-CELLS, CYTOTOXIC T-CELL INDUCERS, AND PHARMACEUTICAL COMPOSITIONS AND VACCINES EMPLOYING THEM” (NEC CORPORATION, priority 2007, published 2010).
Each block holds one binder with its values, some of them ahead of it.

Experiments:
[1] = target: HLA-A*0201 molecule (human); experiment: flow cytometry, acid-stripped JY cells reconstituted with beta2m and peptide dilutions, stained with mAb BB7.2
[2] = target: HLA-A*0206 molecule (human); experiment: flow cytometry, RA2.6 (RMAS-HLA-A*0206) stabilisation assay with peptide dilutions, stained with mAb BB7.2
[3] = target: HLA-A*2402 molecule (human); experiment: flow cytometry, acid-stripped C1R-A24 cells reconstituted with beta2m and peptide dilutions, stained with mAb 17A12

-log Kd [1]: 7.84 -log Kd
-log Kd [2]: 7.74 -log Kd
-log Kd [3]: 9.16 -log Kd
B1: W10 peptide (peptide)
peptide: ALLPAVPSL
modifications: not checked

-log Kd [1]: 6.41 -log Kd
-log Kd [2]: 6.61 -log Kd
-log Kd [3]: 7.67 -log Kd
B2: W302 peptide (peptide)
peptide: RVPGVAPTL
modifications: not checked
